# Laboratory results: patent publication US10363306B2, “Cytokines and neuroantigens for treatment of immune disorders” (East Carolina University, priority 2009, dated 2019)
# How the values were obtained:
# EAE in Lewis rats [1] = assay: Prevention of EAE by pretreatment before encephalitogenic challenge; format: in vivo
# EAE in Lewis rats [2] = assay: Treatment of ongoing EAE after disease onset; format: in vivo
# [3] = Table 3, baculovirus-derived, 1 nmole s.c. days −21, −14, −7, challenge day 0, severe = EP or P
# [4] = Table 3, baculovirus-derived, 1 nmole s.c. in saline days −21, −14, −7, challenge 50 ug DHFR-NAg in CFA day 0
# [5] = Table 4 Exp. 1 & 2 combined, HEK293-derived, 1 nmole days −21, −14, −7, challenge day 0
# [6] = Table 4 Exp. 1, HEK293-derived, 1 nmole in saline days −21, −14, −7, challenge DHFR-NAg in CFA day 0
# [7] = Table 4 Exp. 2, HEK293-derived, 1 nmole in saline days −21, −14, −7, challenge DHFR-NAg in CFA day 0
# [8] = Table 5 Exp 1-2 compiled, 1 nmole s.c. days −21, −14, −7 (IFNβ + NAg: separate injections), challenge day 0
# [9] = Table 5 Exp 1, 1 nmole s.c. in saline days −21, −14, −7 (IFNβ + NAg: separate injections <0.5 cm apart), challenge DHFR-NAg in CFA day 0
# [10] = Table 5 Exp 2, 1 nmole s.c. in saline days −21, −14, −7 (IFNβ + NAg: separate injections <0.5 cm apart), challenge DHFR-NAg in CFA day 0
# [11] = Table 6 Experiment 1, s.c. day 9 (1 nmole), day 10 (1 nmole), day 12 (0.5 nmole) after DHFR-NAg in CFA day 0
# [12] = Table 6 Experiment 2, 1 nmole s.c. on days 9, 10, 12, and 14 after DHFR-NAg in CFA day 0
# [13] = Table 6 Experiments 1 & 2 compiled, treatment from day 9 after onset
# [14] = Table 7 Experiment 1, 1 nmole s.c. days 10, 11, and 13, severe EAE = scores from 1.0 to 3.0
# [15] = Table 7 Experiment 1, 1 nmole s.c. in saline days 10, 11, and 13, IFNβ + NAg as mixture
# [16] = Table 7 Experiment 2, 1 nmole s.c. days 9, 10, 12, and 14, severe EAE = scores from 1.0 to 3.0
# [17] = Table 7 Experiment 2, 1 nmole s.c. in saline days 9, 10, 12, and 14, IFNβ + NAg as mixture
# [18] = Table 7 Experiment 3, 1 nmole s.c. days 9, 10, and 12, severe EAE = scores from 1.0 to 3.0
# [19] = Table 7 Experiment 3, 1 nmole s.c. in saline days 9, 10, and 12, IFNβ + NAg as mixture
# [20] = Table 7 Experiments 1-3 compiled, 1 nmole s.c. after onset
# [21] = Table 7 Experiments 1-3 compiled, severe EAE = scores from 1.0 to 3.0
molecule,measurement,setting,value
"IFNβ-NAg: Fusion protein: rat IFNβ, enterokinase linker (GDDDDKG), encephalitogenic 73-87 peptide of guinea pig MBP, C-terminal 6-histidine tag (protein) IDYKQLQFRQSTSIRTCQKLLRQLNGRLNLSYRTDFKIPMEVMHPSQMEKSYTAFAIQVMLQNVFLVFRSNFSSTGWNETIVESLLDELHQQTELLEIILKEKQEERLTWVTSTTTLGLKSYYWRVQRYLKDKKYNSYAWMVVRAEVFRNFSIILRLNRNFQNGDDDDKGPQKSQRSQDENPVVHHHHHH",Incidence of severe EAE,EAE in Lewis rats [1]; [3],4 of 9
same,Mean # days with severe EAE,EAE in Lewis rats [1]; [3],1.0 ± 1.3 days
same,Incidence of EAE,EAE in Lewis rats [1]; [4],9 of 9
same,Mean cumulative score,EAE in Lewis rats [1]; [4],3.4 ± 2.7
same,Mean maximal score,EAE in Lewis rats [1]; [4],1.4 ± 0.9
same,Median cumulative score,EAE in Lewis rats [1]; [4],2.5
same,Median maximal score,EAE in Lewis rats [1]; [4],1.0
same,Incidence of EAE,EAE in Lewis rats [1]; [5],8 of 8
same,Incidence of severe EAE,EAE in Lewis rats [1]; [5],4 of 8
same,Mean # days with severe EAE,EAE in Lewis rats [1]; [5],0.8 ± 1.0 days
same,Mean cumulative score,EAE in Lewis rats [1]; [5],7.0 ± 5.3
same,Mean maximal score,EAE in Lewis rats [1]; [5],1.5 ± 0.9
same,Median cumulative score,EAE in Lewis rats [1]; [5],5.9
same,Median maximal score,EAE in Lewis rats [1]; [5],1.5
same,Mean # days with severe EAE,"EAE in Lewis rats [1]; Table 4 Exp. 1, HEK293-derived, 1 nmole days −21, −14, −7, challenge day 0",0.6 ± 1.3 days
same,Incidence of severe EAE,"EAE in Lewis rats [1]; Table 4 Exp. 1, HEK293-derived, 1 nmole days −21, −14, −7, challenge day 0, severe = partial or full hindlimb paralysis",1 of 4
same,Incidence of EAE,EAE in Lewis rats [1]; [6],4 of 4
same,Mean cumulative score,EAE in Lewis rats [1]; [6],6.3 ± 6.7
same,Mean maximal score,EAE in Lewis rats [1]; [6],1.3 ± 1.2
same,Median cumulative score,EAE in Lewis rats [1]; [6],3.9
same,Median maximal score,EAE in Lewis rats [1]; [6],1.0
same,Mean # days with severe EAE,"EAE in Lewis rats [1]; Table 4 Exp. 2, HEK293-derived, 1 nmole days −21, −14, −7, challenge day 0",1.0 ± 0.7 days
same,Incidence of severe EAE,"EAE in Lewis rats [1]; Table 4 Exp. 2, HEK293-derived, 1 nmole days −21, −14, −7, challenge day 0, severe = partial or full hindlimb paralysis",3 of 4
same,Incidence of EAE,EAE in Lewis rats [1]; [7],4 of 4
same,Mean cumulative score,EAE in Lewis rats [1]; [7],7.8 ± 4.3
same,Mean maximal score,EAE in Lewis rats [1]; [7],1.6 ± 0.8
same,Median cumulative score,EAE in Lewis rats [1]; [7],8.9
same,Median maximal score,EAE in Lewis rats [1]; [7],2.0
same,% mean maximal weight loss,EAE in Lewis rats [1]; [8],12.6 ± 3.6%
same,Incidence of EAE,EAE in Lewis rats [1]; [8],14 of 14
same,Incidence of severe EAE,EAE in Lewis rats [1]; [8],7 of 14
same,Mean # days with severe EAE,EAE in Lewis rats [1]; [8],1.0 ± 1.2 days
same,Mean cum. score,EAE in Lewis rats [1]; [8],7.6 ± 6.2
same,Mean maximal score,EAE in Lewis rats [1]; [8],1.5 ± 1.1
same,Median cum. score,EAE in Lewis rats [1]; [8],5.5
same,Median maximal score,EAE in Lewis rats [1]; [8],1.5
same,% mean maximal weight loss,EAE in Lewis rats [1]; [9],14.8 ± 1.9%
same,Incidence of EAE,EAE in Lewis rats [1]; [9],7 of 7
same,Incidence of severe EAE,EAE in Lewis rats [1]; [9],4 of 7
same,Mean # days with severe EAE,EAE in Lewis rats [1]; [9],1.1 ± 1.2 days
same,Mean cum. score,EAE in Lewis rats [1]; [9],8.0 ± 6.3
same,Mean maximal score,EAE in Lewis rats [1]; [9],1.5 ± 1.0
same,Median cum. score,EAE in Lewis rats [1]; [9],7.0
same,Median maximal score,EAE in Lewis rats [1]; [9],2.0
same,% mean maximal weight loss,EAE in Lewis rats [1]; [10],10.5 ± 3.6%
same,Incidence of EAE,EAE in Lewis rats [1]; [10],7 of 7
same,Incidence of severe EAE,EAE in Lewis rats [1]; [10],3 of 7
same,Mean # days with severe EAE,EAE in Lewis rats [1]; [10],0.9 ± 1.2 days
same,Mean cum. score,EAE in Lewis rats [1]; [10],7.2 ± 6.4
same,Mean maximal score,EAE in Lewis rats [1]; [10],1.5 ± 1.4
same,Median cum. score,EAE in Lewis rats [1]; [10],3.0
same,Median maximal score,EAE in Lewis rats [1]; [10],0.5
same,day of disease onset,"EAE in Lewis rats [1]; baculovirus-derived, pretreatment days −21, −14, −7 (not shown)",did not significantly modulate
same,% mean maximal weight loss,EAE in Lewis rats [2]; [11],3.8 ± 2.0%
same,Incidence of severe EAE,EAE in Lewis rats [2]; [11],1 of 6
same,Mean # days with severe EAE,EAE in Lewis rats [2]; [11],0.1 ± 0.2 days
same,Mean cum. score,EAE in Lewis rats [2]; [11],3.4 ± 2.1
same,Mean maximal score,EAE in Lewis rats [2]; [11],0.7 ± 0.6
same,Median cum. score,EAE in Lewis rats [2]; [11],3.5
same,Median maximal score,EAE in Lewis rats [2]; [11],0.5
same,% mean maximal weight loss,EAE in Lewis rats [2]; [12],6.4 ± 5.0%
same,Incidence of severe EAE,EAE in Lewis rats [2]; [12],1 of 5
same,Mean # days with severe EAE,EAE in Lewis rats [2]; [12],0.1 ± 0.2 days
same,Mean cum. score,EAE in Lewis rats [2]; [12],2.7 ± 1.5
same,Mean maximal score,EAE in Lewis rats [2]; [12],0.7 ± 0.8
same,Median cum. score,EAE in Lewis rats [2]; [12],2.3
same,Median maximal score,EAE in Lewis rats [2]; [12],0.3
same,% mean maximal weight loss,EAE in Lewis rats [2]; [13],5.0 ± 3.7%
same,Incidence of severe EAE,EAE in Lewis rats [2]; [13],2 of 11
same,Mean # days with severe EAE,EAE in Lewis rats [2]; [13],0.1 ± 0.2 days
same,Mean cum. score,EAE in Lewis rats [2]; [13],3.1 ± 1.8
same,Mean maximal score,EAE in Lewis rats [2]; [13],0.7 ± 0.7
same,Median cum. score,EAE in Lewis rats [2]; [13],2.8
same,Median maximal score,EAE in Lewis rats [2]; [13],0.5
same,Incidence of severe EAE,EAE in Lewis rats [2]; [14],0 of 5
same,Mean # days with severe EAE (A-P),EAE in Lewis rats [2]; [14],0.3 ± 0.7 days
same,Mean cum. score,EAE in Lewis rats [2]; [15],1.7 ± 0.9
same,Mean maximal score,EAE in Lewis rats [2]; [15],0.4 ± 0.1
same,Median cum. score,EAE in Lewis rats [2]; [15],1.8
same,Median maximal score,EAE in Lewis rats [2]; [15],0.3
same,Incidence of severe EAE,EAE in Lewis rats [2]; [16],1 of 6
same,Mean # days with severe EAE (A-P),EAE in Lewis rats [2]; [16],0.1 ± 0.2 days
same,Mean cum. score,EAE in Lewis rats [2]; [17],1.0 ± 0.7
same,Mean maximal score,EAE in Lewis rats [2]; [17],0.6 ± 0.7
same,Median cum. score,EAE in Lewis rats [2]; [17],0.8
same,Median maximal score,EAE in Lewis rats [2]; [17],0.4
same,Incidence of severe EAE,EAE in Lewis rats [2]; [18],0 of 7
same,Mean # days with severe EAE (A-P),EAE in Lewis rats [2]; [18],0.0 ± 0.0 days
same,Mean cum. score,EAE in Lewis rats [2]; [19],1.7 ± 0.6
same,Mean maximal score,EAE in Lewis rats [2]; [19],0.4 ± 0.1
same,Median cum. score,EAE in Lewis rats [2]; [19],1.8
same,Median maximal score,EAE in Lewis rats [2]; [19],0.3
same,Mean cum. score,EAE in Lewis rats [2]; [20],1.4 ± 0.8
same,Mean maximal score,EAE in Lewis rats [2]; [20],0.4 ± 0.4
same,Median cum. score,EAE in Lewis rats [2]; [20],1.4
same,Median maximal score,EAE in Lewis rats [2]; [20],0.3
same,Incidence of severe EAE,EAE in Lewis rats [2]; [21],1 of 18
same,Mean # days with severe EAE (A-P),EAE in Lewis rats [2]; [21],0.1 ± 0.4 days
same,"EAE-associated weight loss, mean",EAE in Lewis rats [2]; experiment 1 of Table 7,9.7%
same,"EAE-associated weight loss, mean",EAE in Lewis rats [2]; experiment 2 of Table 7,8.7%
same,"EAE-associated weight loss, mean",EAE in Lewis rats [2]; experiment 3 of Table 7,8.5%
